# Patent publication US20140348834A1 (published 2014)
# B1: IL17-TN-L7-G9 (antibody, V domains shown)
# VH: EVQLLESGGGVVQPGRSLRLSCAASGFIFSNYGMHWVRQAPGKGLEWVAVISYDGSNKYYADSVKGRFTISRDNSKNTLYLEMNSLRPEDTAVYYCAKVGASGDYYYSYGLDVWGQGTTVTVSS
# VL: QSGLTQPPSASGTPGQTVSISCSGSNSNIGSHSVNWYQQVPGAAPKLLMYGIGQRPSGVPDRFSVSQSGTSASLAISGLQSEDEADYYCATWDDSLGGYVFGSGTKVTVLG
# notes: Fully human antibody
# B2: IL17-G9-1 (antibody, V domains shown)
# VH: EVQLLESGGGVVQPGRSLRLSCAASGFIFSNYGMHWVRQAPGKGLEWVAVISYDGSNKYYADSVKGRFTISRDNSKNTLYLEMNSLRPEDTAVYYCAKVGASGDYYYSYGLDVWGQGTTVTVSS
# VL: QSVLTQPPSASGTPGQTVSISCSGSHSNIGRHPVDWYQQVPGAAPKLLMYYGGYRPSGVPDRFSGSQSGTSASLAISGLQSEDEADYYCATWDDRLVGYVFGSGTKVTVLG
# B3: IL17-h10F7.5 (antibody, V domains shown)
# VH: EVQLVQSGAEVKKPGSSVKVSCKASGYTFTDYEIHWVRQAPGQGLEWMGVNDPESGGTFYNQKFDGRVTITADKSTSTAYMELSSLRSEDTAVYYCARYYRYESFYGMDYWGQGTTVTVSS
# VL: DIQLTQSPSSLSASVGDRVTITCSASSSISYIYWFQQKPGKSPKRWIYATFELASGVPSRFSGSGSGTDYTLTISSLQPEDFATYYCHQRSSYPWTFGQGTKLEIKR
# notes: IgG; constant regions not specified
# B4: IL17-h10F7.10 (antibody, V domains shown)
# VH: EVQLVQSGAEVKKPGSSVKVSCKASGYTFTDYEIHWVRQAPGQGLEWMGVNDPESGGTFYNQKFDGRVTITADKSTSTAYMELSSLRSEDTAVYYCARYYRYESFYGMDYWGQGTTVTVSS
# VL: EIVLTQSPDFQSVTPKEKVTITCSASSSISYIYWFQQKPDQSPKRWIYATFELASGVPSRFSGSGSGTDYTLTINSLEAEDAATYYCHQRSSYPWTFGQGTKLEIKR
# notes: as for B3
# B5: IL17-h10F7.1 (antibody, V domains shown)
# VH: EVQLVQSGAEVKKPGSSVKVSCKASGYTFTDYEIHWVRQAPGQGLEWIGVNDPESGGTFYNQKFDGRATLTADKSTSTAYMELSSLRSEDTAVYYCTRYYRYESFYGMDYWGQGTTVTVSS
# VL: QIVLTQSPAIMSASPGEKVTMTCSASSSISYIYWFQQKPGTSPKRWIYATFELASGVPARFSGSGSGTSYSLTISSMEAEDAATYYCHQRSSYPWTFGGGSKLEIKR
# notes: Cloned into IgG expression vectors; constant regions not specified
# B6: IL17-h10F7.7 (antibody, V domains shown)
# VH: EVQLVQSGAEVKKPGSSVKVSCKASGYTFTDYEIHWVRQAPGQGLEWMGVNDPESGGTFYNQKFDGRVTITADKSTSTAYMELSSLRSEDTAVYYCARYYRYESFYGMDYWGQGTTVTVSS
# VL: EIVLTQSPDFQSVTPKEKVTITCSASSSISYIYWYQQKPDQSPKLLIKATFELASGVPSRFSGSGSGTDFTLTINSLEAEDAATYYCHQRSSYPWTFGQGTKLEIKR
# notes: as for B3
# B7: IL17-h10F7.16 (antibody, V domains shown)
# VH: EVQLVQSGAEVKKPGSSVKVSCKASGYTFTDYEIHWVRQAPGQGLEWMGVNDPESGGTFYNQKFDGRVTITADKSTSTAYMELSSLRSEDTAVYYCARYYRYESFYGMDYWGQGTTVTVSS
# VL: QIVLTQSPDFQSVTPKEKVTITCSASSSISYIYWFQQKPDQSPKRWIYATFELASGVPSRFSGSGSGTDYTLTINSLEAEDAATYYCHQRSSYPWTFGQGTKLEIKR
# notes: as for B3
# B8: IL17-h10F7.8 (antibody, V domains shown)
# VH: EVQLVQSGAEVKKPGSSVKVSCKASGYTFTDYEIHWVRQAPGQGLEWIGVNDPESGGTFYNQKFDGRATLTADKSTSTAYMELSSLRSEDTAVYYCTRYYRYESFYGMDYWGQGTTVTVSS
# VL: EIVLTQSPDFQSVTPKEKVTITCSASSSISYIYWYQQKPDQSPKLLIKATFELASGVPSRFSGSGSGTDFTLTINSLEAEDAATYYCHQRSSYPWTFGQGTKLEIKR
# notes: as for B3
# B9: IL17-h10F7.3 (antibody, V domains shown)
# VH: EVQLVQSGAEVKKPGSSVKVSCKASGYTFTDYEIHWVRQAPGQGLEWIGVNDPESGGTFYNQKFDGRATLTADKSTSTAYMELSSLRSEDTAVYYCTRYYRYESFYGMDYWGQGTTVTVSS
# VL: DIQMTQSPSSLSASVGDRVTITCSASSSISYIYWYQQKPGKAPKRLIYATFELASGVPSRFSGSGSGTDFTLTISSLQPEDFATYYCHQRSSYPWTFGQGTKLEIKR
# notes: as for B3
# B10: IL17-h10F7.12 (antibody, V domains shown)
# VH: EVQLVQSGAEVKKPGSSVKVSCKASGYTFTDYEIHWVRQAPGQGLEWMGVNDPESGGTFYNQKFDGRVTITADKSTSTAYMELSSLRSEDTAVYYCARYYRYESFYGMDYWGQGTTVTVSS
# VL: QIVLTQSPSSLSASVGDRVTITCSASSSISYIYWFQQKPGKSPKRWIYATFELASGVPSRFSGSGSGTDYTLTISSLQPEDFATYYCHQRSSYPWTFGQGTKLEIKR
# notes: as for B3
# Target: cyno IL-17A (cynomolgus monkey, UniProt A0A2K5TTB0 24-155)
# Experiment: SPR Biacore, captured binder
# Description: (§1) The binding of antibodies to purified recombinant human, cyno, rat, mouse, rabbit IL-17 and human IL-17A/F were determined by surface plasmon resonance-based measurements with a Biacore® 3000 instrument (Biacore® AB, Uppsala, Sweden) using running HBS-EP (10 mM HEPES [pH 7.4], 150 mM NaCl, 3 mM EDTA, and 0.005% surfactant P20) at 25° C. […] Approximately 5000 RU of goat anti-mouse or anti-human IgG (Fcγ) fragment specific polyclonal antibody (Pierce Biotechnology Inc, Rockford, Ill.) diluted in 10 mM sodium acetate (pH 4.5) was directly immobilized across a CM5 research grade biosensor chip using a standard amine coupling kit according to manufacturer's instructions and procedures at 25 μg/ml. Unreacted moieties on the biosensor surface were blocked with ethanolamine. Modified carboxymethyl dextran surface in flowcell 2 and 4 was used as a reaction surface. Unmodified carboxymethyl dextran without goat anti-mouse or anti-human IgG in flow cell 1 and 3 was used as the reference surface. For kinetic analysis, rate equations derived from the 1:1 Langmuir binding model were fitted simultaneously to association and dissociation phases of all eight injections (using global fit analysis) with the use of Biaevaluation 4.0.1 software. Purified antibodies were diluted in HEPES-buffered saline for capture across goat anti-mouse or anti-human IgG specific reaction surfaces. Antibodies to be captured as a ligand (25 μg/ml) were injected over reaction matrices at a flow rate of 5 μl/min. The association and dissociation rate constants, kon (unit M-1s-1) and koff (unit s-1) were determined under a continuous flow rate of 25 μl/min. Rate constants were derived by making kinetic binding measurements at ten different antigen concentrations ranging from 10 nM to 200 nM. The equilibrium dissociation constant (unit M) of the reaction between antibodies and recombinant purified IL-17 antigens was then calculated from the kinetic rate constants by the following formula: KD=koff/kon. Binding was recorded as a function of time and kinetic rate constants are calculated. In this assay, on-rates as fast as 10⁶ M⁻¹ s⁻¹ and off-rates as slow as 10⁻⁶ s⁻¹ can be measured.
# Chain of cyno IL-17A (A0A2K5TTB0 entry or part of it): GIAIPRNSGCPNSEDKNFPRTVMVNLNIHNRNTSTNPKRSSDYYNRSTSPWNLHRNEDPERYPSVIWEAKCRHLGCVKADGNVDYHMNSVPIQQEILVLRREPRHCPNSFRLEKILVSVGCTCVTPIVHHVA
Kd,koff,kon,Binder
2.07 nM,0.000199 s⁻¹,96000 M⁻¹ s⁻¹,B1
0.00296 nM,1e-06 s⁻¹,338000 M⁻¹ s⁻¹,B2

# Target: T1, human IL-17A (human, UniProt Q16552 24-155)
# T1 construct: Purified recombinant; biotinylated in the ELISA; also called HuIL-17A; Hu IL-17A
# Experiment: SPR Biacore, captured binder
# T1 sequence (Q16552 24-155 limits assumed): as the sequence (A0A2K5TTB0 entry or part of it) above, with A3T, S8P, S34N, V77I, K78N, R104P counted along it
# Description: as §1
Kd,koff,kon,Binder
0.28 nM,8.65e-05 s⁻¹,309000 M⁻¹ s⁻¹,B1
0.0257 nM,1.05e-05 s⁻¹,408000 M⁻¹ s⁻¹,B2

# Target: T2, human IL-17A/F (human, UniProt Q16552 24-155; Q96PD4 31-163)
# T2 construct: Heterodimer of IL-17A and IL-17F, purified recombinant; also called HuIL-17A/F; Hu IL-17A/F
# Experiment: SPR Biacore, captured binder
# Description: as §1
# T2 sequence (Q16552 24-155 limits assumed, chain 1 of 2): as the sequence (A0A2K5TTB0 entry or part of it) above, with A3T, S8P, S34N, V77I, K78N, R104P counted along it
# T2 sequence (Q96PD4 31-163 limits assumed, chain 2 of 2): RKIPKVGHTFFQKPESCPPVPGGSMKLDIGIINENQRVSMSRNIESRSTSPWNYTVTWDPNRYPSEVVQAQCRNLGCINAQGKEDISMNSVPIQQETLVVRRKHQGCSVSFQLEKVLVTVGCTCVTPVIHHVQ
Kd,koff,kon,Binder
0.907 nM,9.7e-05 s⁻¹,107000 M⁻¹ s⁻¹,B1
0.00313 nM,1e-06 s⁻¹,320000 M⁻¹ s⁻¹,B2

# Target: T3, human IL-17A (human, UniProt Q16552 24-155)
# T3 construct: Recombinant; biotinylated in the ELISA; also called hIL-17; hIL17A
# Experiment: hIL17A ELISA
# T3 sequence (Q16552 24-155): as the sequence (A0A2K5TTB0 entry or part of it) above, with A3T, S8P, S34N, V77I, K78N, R104P counted along it
row,EC50,Binder
1,0.06 nM,B3
2,0.04 nM,B4
3,1.7 nM,B5
4,0.05 nM,B6
5,0.09 nM,B7
6,3.9 nM,B8
7,0.05 nM,B9
8,0.14 nM,B10
